In this assay the target is SARS-CoV-2 WT RBD protein (SARS-CoV-2 wild type, UniProt P0DTC2). As to the kind of experiment: ELISA. In general terms: In an ELISA, binding on a coated surface is turned into a signal by an enzyme label.

B1: rabbit monoclonal antibody (RmAb) 9H1 (antibody, V domains shown)
VH: QSVEESGGRLVTPGTPLTLTCTVSGFSLSRYAMSWVRQAPGKGLEWIGIIVDSGHTAYASWAKGRFTISRTSTTVDLKMTSLTTEDTATYFCARETGGGAFYVFEFWGPGTVVTVSS
VL: QVLTQTPSSVSAAVGGTVTINCQASEDIYDNLVWYQQKPGQPPKLLIYDASTLAFGVSSRFRGSGSGTHFTLTMRDVQCDDAATYYCQGEFSCSSGDCTAFGGGTEVVVK
For B1, the binding result is “binds”.

(Values after paper PMC10072977 (Biochemical and Biophysical Research Communications, 2023).)
